Test results published in US20200239570A1 (CRESCENDO BIOLOGICS, published 2020).
Substitutions are numbered along the chain they refer to. Like-named read-outs stand apart in the source and are kept apart here. Blank lines part the entries; values can stand above or below the molecule they belong to.

Legend:
[1] = target: human PD-1 expressed on cells (CHO human PD-1 cells) (human) (UniProt Q15116)
[2] = target: human PD-1 expressed on cells (CHO human PD-1 cells) (human) (UniProt Q15116); remark: listed apart in the source
[3] = target: T1, recombinant human PD-1 Fc chimera (human, UniProt Q15116 25-167); experiment: HTRF inhibition assay: biotinylated PD-L2-Fc binding to Europium cryptate labelled human PD-1-Fc; the target of the control antibody is not given
T1 construct: Bought (R&D 1086-PD); Labelled with europium cryptate in the PD-L2 HTRF assay; also called human PD-1 (R&D Systems cat no. 1086-PD); human PD-1-huFc; not shown: human Fc of the bought chimera
T1 sequence (Q15116 25-167, change not shown): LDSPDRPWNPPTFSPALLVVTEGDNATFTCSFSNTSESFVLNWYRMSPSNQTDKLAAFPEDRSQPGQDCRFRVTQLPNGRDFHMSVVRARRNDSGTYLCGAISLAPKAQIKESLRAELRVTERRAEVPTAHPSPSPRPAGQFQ

[4] = target: T1, recombinant human PD-1 Fc chimera; experiment: HTRF inhibition assay: strep tagged human PD-L1 binding to recombinant human PD-1 (PD-L1 by legend paragraph 65; the sheet's title reads PD1:PDL2); the target of the control antibody is not given
[5] = target: T1, recombinant human PD-1 Fc chimera; experiment: BLI (Octet), PD-1-huFc on biosensor, 1:1 fit
Procedure: Binding kinetics of clones to human PD-1-huFc were measured in real-time bio-layer interferometer based biosensor Octet (ForteBio). Recombinant human PD-1-huFc was either immobilized by standard amine coupling to amine reactive biosensors in 10 mM sodium acetate at pH 5.0 or capture by protein G biosensors (ForteBio). All the binding studies were performed in HBS-ET Octet kinetics buffer. Biosensors were always washed in Octet kinetics buffer in between different steps. A seven point, two-fold dilution series of each Humabody® VH was made with a top concentration in range 100-30 nM. The contact time for each of the association steps was varied between 180-300 seconds and the dissociation step was varied between 400-600 seconds. Kinetic association (kₐ) and dissociation (kd) rate constants were determined by processing and fitting the data to a 1:1 binding model using ForteBio Analysis software.

[6] = target: T1, recombinant human PD-1 Fc chimera; experiment: HTRF inhibition assay: strep tagged human PD-L1 binding to recombinant human PD-1 (PD-L1 by legend paragraph 65; the sheet's title reads PD1:PDL2)
Procedure: All samples and reagents were prepared in HTRF assay buffer containing PBS, 0.1% (w/v) BSA and 0.4M Potassium Fluoride. […] Total binding controls containing periplasmic extract sample buffer and non-specific binding controls containing excess untagged competitor were set up on each plate for data normalisation. Time-resolved fluorescent emission at 620 nm and 665 nm was measured following excitation at 337 nm on the BMG PHERAstar plate reader. Data was expressed as a % of the total binding control (% control) after subtraction of the background signal determined from the non-specific binding control wells.

[7] = target: T2, human PD-1 expressed on cells (CHO human PD-1 cells) (human, UniProt Q15116 21-288); experiment: FMAT epitope competition on CHO human PD-1 cells; competitor 2 nM 1.1-Strep tagged protein
T2 construct: CHO cells in the FMAT assays; Jurkat reporter cells in the reporter assay; primary CD4+ T cells in the mixed lymphocyte reaction; also called CHO TREX human PD1 cell line; CHO PD-1
T2 sequence (Q15116 21-288): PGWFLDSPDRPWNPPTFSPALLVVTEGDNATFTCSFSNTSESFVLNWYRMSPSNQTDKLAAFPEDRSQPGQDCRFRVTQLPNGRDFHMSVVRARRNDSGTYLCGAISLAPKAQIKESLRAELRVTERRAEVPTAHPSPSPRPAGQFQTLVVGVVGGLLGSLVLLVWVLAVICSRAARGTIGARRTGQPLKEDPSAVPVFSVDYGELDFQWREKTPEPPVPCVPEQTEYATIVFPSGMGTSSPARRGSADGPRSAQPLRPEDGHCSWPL
Procedure: (§1) For the epitope competition assay reagents were prepared in FMAT assay buffer. […] Plates were incubated for a minimum of 1.5 hours at room temperature then fluorescence measured in the FL2 (502 nm-537 nm) and FL5 (677-800 nm) channels on the Mirrorball plate reader (TTP) following excitation at 488 nm and 640 nm. Data was expressed as a % of the total binding control (i.e. % control) after subtraction of the background signal determined from the non-specific binding control wells.

[8] = target: T2, human PD-1 expressed on cells (CHO …); experiment: FMAT binding assay on CHO human PD-1 cells, detection by anti-His
Source text: Plates were read in the FL2 (502 nm-537 nm) and FL5 (677-800 nm) channels on the TTP Mirrorball plate reader following excitation at 488 nm and 640 nm. Data was gated on FL5 perimeter and peak intensity and the FL2 median mean fluorescence intensity of the gated data used for determination of VH binding.

[9] = target: T2, human PD-1 expressed on cells (CHO …); experiment: FMAT epitope competition on CHO human PD-1 cells; competitor 2 nM 2.1-Strep tagged protein
Procedure: as §1

[10] = target: T3, mouse PD1 (R&D Systems cat no. 1021-PD) (mouse, UniProt Q02242 25-167); experiment: HTRF binding assay on mouse PD-1
T3 construct: bought recombinant protein; also called mouse PD-1 protein
T3 sequence (looked up): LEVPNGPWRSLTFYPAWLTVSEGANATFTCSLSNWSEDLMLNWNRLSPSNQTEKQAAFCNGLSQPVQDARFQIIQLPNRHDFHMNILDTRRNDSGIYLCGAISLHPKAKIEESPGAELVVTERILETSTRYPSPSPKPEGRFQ
Procedure: (§2) Purified VH were tested for their ability to bind to human PD-1 (R&D Systems cat no. 1086-PD), cynomolgus PD-1 (Acro Biosystems cat no. PD1-C5254) and mouse PD1 (R&D Systems cat no. 1021-PD) in an HTRF Binding assay format. All reagents and serially diluted VH were prepared in assay buffer containing PBS, 0.1% BSA and 0.4M Potassium Fluoride. Samples or assay buffer (non-specific binding) were incubated with 2 nM human/cynomolgus or mouse PD-1, 1 nM Anti human-Fc Cryptate PAb (Cisbio cat. no. 61HFCKLB) and 30 nM anti His-D2 (CisBio cat no 61HISDLA) in black 384-shallow well assay plates for a minimum of 3 hours at room temperature. Time-resolved fluorescent emission at 620 nm and 665 nm was measured following excitation at 337 nm on the BMG PHERAstar plate reader. The HTRF ratio were calculated ((665 nm emission/620 nm emission)*10000) and the data corrected for (non-specific binding) to give the specific binding signal.

[11] = target: T1, recombinant human PD-1 Fc chimera; experiment: HTRF binding assay, His-tagged VH on 2 nM recombinant PD-1
Procedure: as §2

[12] = target: T4, cynomolgus PD-1 (Acro Biosystems cat no. PD1-C5254) (cynomolgus, UniProt B0LAJ3 25-170); experiment: as above
T4 construct: bought recombinant protein; also called cyno PD-1; cynomolgus PD-1 recombinant protein; not shown: Human Fc tag of the vendor's construct, and any linker to it; The Fc is implied by detection with anti human-Fc cryptate
T4 sequence (B0LAJ3 entry or part of it limits assumed): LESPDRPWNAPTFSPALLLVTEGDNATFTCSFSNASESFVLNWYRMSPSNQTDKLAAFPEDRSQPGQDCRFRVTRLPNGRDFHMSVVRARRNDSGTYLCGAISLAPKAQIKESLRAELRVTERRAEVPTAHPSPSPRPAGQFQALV
Procedure: as §2

[13] = target: T1, recombinant human PD-1 Fc chimera; experiment: SPR (Biacore T200), PD-1-huFc amine-coupled to CM5, single cycle kinetics, 1:1 fit
Procedure: Binding kinetics of certain VH single domain antibodies binding to human PD-1-huFc were measured by surface plasmon resonance (SPR) technology using Biacore T200 instrument (GE Healthcare). Recombinant human PD-1-huFc was immobilized by standard amine coupling to CM5 sensorschip (GE Healthcare) using 0.01 mg/ml solution of antigen in 10 mM sodium acetate at pH 5.5. For the reference flow cell, a blank immobilisation was carried out. Single cycle kinetics assays were used to study the interaction, a five point, three-fold dilution series of each Humabody® was made with a top concentration of 30 nM. The binding kinetics were followed by flowing the Humabody® over the chip surface in HBS EP+ buffer at a flow rate of 30 μl/min. The contact time for each of the association steps was 180 seconds and the dissociation step was varied between 1200-3600 seconds. The data was fitted to a 1:1 binding model after double reference subtraction using the Biacore T200 Evaluation software.

[14] = target: T2, human PD-1 expressed on cells (CHO …); experiment: 2.1 epitope competition assay (FMAT, CHO human PD-1 cells; competitor 2.1-Strep); VH pre-incubated in human serum at 37 C, Day 4
Procedure: (§3) Serum stability of VH was assessed by measurement of its activity following incubation for 0, 1, 4 or 7 days in both human and mouse serum (Sigma M5905). The pre-incubated samples were serially diluted and tested in the 2.1 epitope competition assay.
as §1

[15] = target: T2, human PD-1 expressed on cells (CHO …); experiment: 2.1 epitope competition assay (FMAT, CHO human PD-1 cells; competitor 2.1-Strep); VH pre-incubated in mouse serum at 37 C, Day 4
Procedure: as §3, §1

[16] = target: T2, human PD-1 expressed on cells (CHO …); experiment: 2.1 epitope competition assay (FMAT, CHO human PD-1 cells; competitor 2.1-Strep); VH pre-incubated in mouse serum at 37 C, Day 1
Procedure: as §3, §1

[17] = target: T2, human PD-1 expressed on cells (CHO …); experiment: FMAT, His-tagged VH on CHO human PD-1 cells
[18] = target: T2, human PD-1 expressed on cells (CHO …); experiment: 2.1 epitope competition assay (FMAT, CHO human PD-1 cells; competitor 2.1-Strep); VH pre-incubated in human serum at 37 C, Day 7
Procedure: as §3, §1

[19] = target: T2, human PD-1 expressed on cells (CHO …); experiment: 2.1 epitope competition assay (FMAT, CHO human PD-1 cells; competitor 2.1-Strep); VH pre-incubated in human serum at 37 C, Day 1
Procedure: as §3, §1

[20] = target: T2, human PD-1 expressed on cells (CHO …); experiment: 2.1 epitope competition assay (FMAT, CHO human PD-1 cells; competitor 2.1-Strep); VH pre-incubated in mouse serum, Day 0
Procedure: as §3, §1

[21] = target: T2, human PD-1 expressed on cells (CHO …); experiment: 2.1 epitope competition assay (FMAT, CHO human PD-1 cells; competitor 2.1-Strep); VH pre-incubated in human serum, Day 0; Day 0, human serum
Procedure: as §3, §1

[22] = target: T3, mouse PD1 (R&D Systems cat no. 1021-PD); experiment: HTRF binding assay, 2 nM mouse PD-1
[23] = target: T2, human PD-1 expressed on cells (CHO …); experiment: 2.1 epitope competition assay (FMAT, CHO human PD-1 cells; competitor 2.1-Strep); VH pre-incubated in mouse serum at 37 C, Day 7
Procedure: as §3, §1

[24] = target: T2, human PD-1 expressed on cells (CHO …); experiment: cell-based or functional assay

Chain of human PD-1 expressed on cells (CHO human PD-1 cells) (human) (Q15116 21-288): as the sequence (Q15116 21-288) above

EC50 (read off the curve), NFAT-luciferase reporter [1]: 20 nM
EC50 (read off the curve), NFAT-luciferase reporter [2]: 5 nM
Molecule: Control

IC50 (read off the curve) [3]: 0.3 nM
IC50 (read off the curve) [4]: 0.3 nM
Molecule: Control anitbody (antibody)

Kd [5]: 1.9 nM
kon [5]: 450000 M⁻¹ s⁻¹
IC50 (read off the curve) [6]: ~2 nM
IC50 [7]: 3.5 nM
EC50 (read off the curve) [8]: ~0.5 nM
IC50 [9]: 3.6 nM
binding result [10]: no binding
EC50 [11]: 0.5 nM
EC50 [12]: 0.6 nM
B1: VH single domain antibody 1.1 (VHH)
VHH: EVQLLESGGGSVQPGRSLRLSCAASGFTFDDHAMHWVRQAPGKGLEWVSGISWNSGSMGYADSVKDRFTISRDNAKSSLYLQMNSLRAEDTALYYCVREKGPGLTGSTADYYGLDVWGQGTMVTVSS
notes: human VH single domain antibody (Humabody), purified through its C-terminal His tag; also called Humabody 1.1; clone 1.1

Kd [13]: 4.24 nM
koff [13]: 0.00134 s⁻¹
kon [13]: 316000 M⁻¹ s⁻¹
IC50 [14]: 10.2 nM
IC50 [7]: 8.9 nM
IC50 [15]: 11.1 nM
IC50 [16]: 9.3 nM
EC50 [17]: 0.6 nM
IC50 [9]: 9.7 nM
IC50 [18]: 9.3 nM
IC50 [19]: 10.1 nM
EC50 [11]: 2.6 nM
EC50 [12]: 6 nM
IC50 [20]: 8.7 nM
IC50 [21]: 12.9 nM
binding result [22]: no binding
IC50 [23]: 11.6 nM
B2: Humabody VH 1.39 (VHH)
VHH: B1 VHH with L5V, S11L, H32Y, M34L, G44D, S55G, M58Y, D66G, S77N, V116A
notes: human VH single domain antibody

IC50 (read off the curve) [6]: ~5 nM
binding result [10]: no binding
EC50 [11]: 0.9 nM
EC50 [12]: 1.1 nM
B3: VH single domain antibody 1.2 (VHH)
VHH: EVQLVESGGGLVQPGRSLRLSCAASGFTFDDYAMHWVRQAPGKDLEWVSGISWNGGSMGYAASVKGRFTISRDNAKNSLYLQMNSLRAEDTALYYCVKDKGPGLIGSTADYYGLDVWGQGTTVTVSS
notes: as for B2

EC50 (read off the curve), NFAT-luciferase reporter [24]: ~20 nM
B4: Blocking VH (VHH)
VHH: EVQLVESGGGLVKPGGSLRLSCAASGFTFSDESMTWMRQAPGKGLEWVSYISSGGGVKFYADSVKGRFTISRDNAKNSLYLQMNSLRAEDTAVYYCAREAPLRLGESPHDAFDISGQGTMVTVSS
